Assay results from publication PMC314469, “Protein Interaction Networks by Proteome Peptide Scanning” (PLoS Biology, 2004).

B1: YMR172W 515-527 (peptide)
chain: RNRASTLPSYPKP
B2: YGL041C 90-103 (peptide)
chain: RLSVKSSRRNPGKP
B3: YMR089C 152-165 (peptide)
chain: RNIPPPPPPPPPKP
B4: YOR156C 78-91 (peptide)
chain: RKSSDIGHIDPWRP
B5: YER172C 459-471 (peptide)
chain: QYDEIHIPAPSKP
B6: YDR365C 307-319 (peptide)
chain: RDESSILPKNYRP
B7: YLR006C 664-677 (peptide)
chain: RMTDSVLVKSPQKP
B8: YML007W 308-321 (peptide)
chain: QVSGTRQSPIPKKP
B9: YNL169C 143-155 (peptide)
chain: QVNSLTLPIWVRP
B10: YGR084C 80-92 (peptide)
chain: RDPKTREPLQPRP
B11: YPR179C 274-286 (peptide)
chain: RDRLGTLPPDLRP
B12: YDR434W 319-332 (peptide)
chain: QWGVIIINKMPLKP
B13: YHL007C 201-213 (peptide)
chain: RATPVSTPVISKP
B14: YOR196C 186-199 (peptide)
chain: RFSSVKTNRTPSKP
B15: YDR122W 674-686 (peptide)
chain: RAVSDFVPGFAKP
B16: YDR128W 69-82 (peptide)
chain: QVADVQWSPHPAKP
B17: YGR109W-B 1008-1020 (peptide)
chain: RAVYTITPETSRP
B18: YDR422C 627-640 (peptide)
chain: QVEPTLDEELPKRP
B19: YNL233W 771-784 (peptide)
chain: RNNAYLPEFEPNRP
B20: YKL089W 337-349 (peptide)
chain: RKKQKKKPTPTRP
B21: YER158C 359-372 (peptide)
chain: RIPVLPPPRSPNRP
B22: YOR144C 235-247 (peptide)
chain: RNTTLTWPQLFKP
B23: YKL219W 373-385 (peptide)
chain: RLLSTKKPMFDRP
B24: YDR242W 430-442 (peptide)
chain: RDYYLSFPESERP
B25: YPL042C 7-19 (peptide)
chain: RAQNSYQPMYQRP
B26: YOL040C 61-73 (peptide)
chain: RAAKLAAPENEKP
B27: YGR092W 44-57 (peptide)
chain: RPAGINDSPSPVKP
B28: YNL094W 468-480 (peptide)
chain: RPPPPPIPSTQKP
B29: YEL062W 541-554 (peptide)
chain: RNTAQSGNLKPERP
B30: YHR089C 121-134 (peptide)
chain: RFLPKPKVVGPPKP
B31: YHR159W 69-81 (peptide)
chain: RLNDQDHPLQAKP
B32: YHL009W-B 360-372 (peptide)
chain: RELGLTRPISQKP
B33: YDR414C 52-64 (peptide)
chain: QVILTRVPHDIRP
B34: YOL090W 17-30 (peptide)
chain: RNFYKKYTGLPKKP
B35: YDR284C 245-258 (peptide)
chain: RIFPPIDDPLPFKP
B36: YNL086W 58-71 (peptide)
chain: REGQVLYDPEPFKP
B37: YDL164C 386-398 (peptide)
chain: RPGIPLKPMLAKP
B38: YER081W 41-53 (peptide)
chain: RLNAVKHPKILKP
B39: YOR236W 58-70 (peptide)
chain: RKTWESIPPKFRP
B40: YPR122W 608-620 (peptide)
chain: RPQIYSEPTRTKP
B41: YIL085C 485-497 (peptide)
chain: REYEKEFPGSYKP
B42: YOR260W 63-75 (peptide)
chain: RLPKALLPIGNRP
B43: YMR302C 753-766 (peptide)
chain: RDRGVLQEIRPAKP
B44: YLR287C-A 17-30 (peptide)
chain: QTPKVEKTEKPKKP
B45: YOR023C 518-530 (peptide)
chain: RERLRANPTDKKP
B46: YDL036C 175-187 (peptide)
chain: QVHRHEPPVTSRP
B47: YGR165W 94-106 (peptide)
chain: RGQSLEHPVTKKP
B48: YPL073C 76-89 (peptide)
chain: RFKYSTNRGIPARP
B49: YIL080W 1034-1046 (peptide)
chain: RAIYTITPETSRP
B50: YGL058W 54-67 (peptide)
chain: RLLLEFDEEYPNKP
B51: YMR201C 33-45 (peptide)
chain: RIESRNEPLKTRP
B52: YPR045C 202-214 (peptide)
chain: RLTSEPNPDLIRP
B53: YKL185W 146-159 (peptide)
chain: RLSSVSLSKRPERP
B54: YLL057C 379-391 (peptide)
chain: RHAFRITPQAERP
B55: YLL029W 24-37 (peptide)
chain: RGTSASHSPRPFRP
B56: YDR104C 1028-1040 (peptide)
chain: RPLIQKGPLYQKP
B57: YJL194W 14-27 (peptide)
chain: RNLFDDAPATPPRP
B58: YLR353W 192-205 (peptide)
chain: RGNDESKNGTPPRP
B59: YMR273C 809-822 (peptide)
chain: RKLTFADVKKPDKP

Target: T1, Abp1 SH3 (ABP1_YEAST), P15891
T1 chain: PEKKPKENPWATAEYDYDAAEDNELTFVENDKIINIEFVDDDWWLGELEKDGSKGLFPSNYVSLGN
Assay: SPOT array

Point of comparison: B6, normalised SPOT signal, Boehringer light units (BLU); mean over the file's lines of this peptide 97.6. Against it:
- B1 — higher, 224
- B2 — higher, 125
- B3 — higher, 1000
- B4 — lower, 77.8
- B5 — lower, 40.6
- B7 — higher, 2960
- B8 — higher, 172
- B9 — higher, 215
- B10 — higher, 297
- B11 — higher, 201
- B12 — lower, 62.9
- B13 — lower, 61.6
- B14 — higher, 159
- B15 — higher, 198
- B16 — lower, 89.6
- B17 — higher, 114
- B18 — lower, 58.1
- B19 — lower, 44.7
- B20 — higher, 106
- B21 — higher, 7670
- B22 — higher, 344
- B23 — higher, 955
- B24 — lower, 41
- B25 — higher, 696
- B26 — lower, 4.4
- B27 — lower, 71
- B28 — higher, 2820
- B29 — higher, 115
- B30 — higher, 1660
- B31 — higher, 104
- B32 — higher, 2940
- B33 — higher, 116
- B34 — higher, 112
- B35 — lower, 92.4
- B36 — lower, 72.5
- B37 — higher, 42200
- B38 — higher, 188
- B39 — higher, 1050
- B40 — higher, 373
- B41 — lower, 13.6
- B42 — higher, 702
- B43 — lower, 51
- B44 — lower, 33.2
- B45 — higher, 303
- B46 — higher, 133
- B47 — higher, 116
- B48 — higher, 110
- B49 — lower, 49.8
- B50 — lower, 97.1
- B51 — higher, 196
- B52 — lower, 94.5
- B53 — higher, 412
- B54 — higher, 555
- B55 — higher, 168
- B56 — higher, 359
- B57 — higher, 126
- B58 — lower, 89.4
- B59 — lower, 62.6
